Three molecules from US20020082384A1, “Process for folding chemically synthesized polypeptides” (priority 2000, published 2002) can be followed below.

The subject of one experiment is human lymphocytes. The experiment can be described thus: Binding of 125I-labelled chemokine to human lymphocytes. The settings on record: binding of 125I-labelled chemokine to human lymphocytes (FIG. 6). As to the method:
FIG. 6 is a graph of the comparison between the biological activity of recombinant I-309 and the synthetic, folded I-309 of the present invention. Biological activity was asses-sed by binding the chemokine, labelled with ^125I, to human lymphocytes.
Folding of the chemokine derivative purified byRP-HPLC was carried out by dissolving 65 mg of product in 60 ml of 0.6 M GuHCl, 10 mM NaHPO4 and 1 mM Tris at pH 8.0 and adding cysteine at a concentration of 100 fold molar excess with respect to the peptide. The polypeptide solution was left at 37° C. for 4 days. Complete cysteine pairing was checked by mass spectrometry after reaction with N-ethyhnaleimide (NEM). The yield of final folded chemokine was almost 25%.

For the next experiment, the system named is neutrophils. The experiment can be described thus: Migration across a polycarbonate filter in response to TARC (Imai method), neutrophils. The class given is cell-based, human. As to the method: (§1) The biological activity of hu-TARC obtained by the methodology of the present invention was performed according to the Imai method (T. Imai et al., J. Biol. Chem., 271, 21514, 1996).
(§2) Human T cell lines, Hut78, Hut 102, and Jurkat, as well as fresh monocytes, neutrophils and lymphocytes were assessed for their migration across a polycarbonate filter in response to TARC.

A further experiment concerns fresh monocytes. As to the kind of experiment: Migration across a polycarbonate filter in response to TARC (Imai method), monocytes. The format is cell-based, human. As to the method: as §1, §2

B1: synthetic, folded, hu-I-309: human chemokine I-309, chemically synthesized with 6 S-t-Bu protected cysteines and folded with cysteine (peptide, UniProt P22362 24-96, looked up)
C-C motif chemokine 1: KSMQVPFSRCCFSFAEQEIPLRAILCYRNTSSICSNEGLIFKLKRGKEACALDTVGWVQRHRKMLRHCPSKRK
Regarding B1, in the experiment with human lymphocytes, the “biological activity compared with recombinant I-309” value is listed as “equivalent to recombinant protein”.

B2: synthetic TARC: 71-residue human thymus and activation regulated chemokine, chemically synthesized as Cys10,11,34,50(S-t-Bu) derivative and folded with cysteine (peptide, UniProt Q92583 24-94, looked up)
C-C motif chemokine 17: ARGTNVGRECCLEYFKGAIPLRKLKTWYQTSEDCSRDAIVFVTVQGRAICSDPNNKRVKNAVKYLQSLERS
For B2, the chemotactic response entry in the experiment with neutrophils and in the experiment on fresh monocytes was “No chemotactic response” throughout.

B3: recombinant TARC: recombinant thymus and activation regulated chemokine used as comparator (protein, UniProt Q92583 24-94, looked up)
C-C motif chemokine 17: ARGTNVGRECCLEYFKGAIPLRKLKTWYQTSEDCSRDAIVFVTVQGRAICSDPNNKRVKNAVKYLQSLERS
As for B3, the chemotactic response entry in the experiment with neutrophils and with fresh monocytes was “No chemotactic response” in each case.
